In paper PMC9482650, “Quantitative fragmentomics allow affinity mapping of interactomes” (Nature Communications, 2022) one finds pKd data, which are given here for 5 molecules.

The pKd is −log10 of the Kd, conventionally taken in molar units.

Among the targets are Inadl_3, Q8NI35; DLG4_1, P78352; DLG1_1, Q12959; Inadl_9, Q8NI35; DLG1_3, Q12959; Inadl_4, Q8NI35; MAGI2_5, Q86UL8; MAGI1_2, Q96QZ7.
Test in all cases: holdup assay
What all share (design): key: below the threshold = too weak to quantify, mostly under pKd 3.1 to 4

The target in a further assay is T1, RAPGEF6, Q8TEU7.
T1 sequence (Q8TEU7 525-625, limits assumed, looked up): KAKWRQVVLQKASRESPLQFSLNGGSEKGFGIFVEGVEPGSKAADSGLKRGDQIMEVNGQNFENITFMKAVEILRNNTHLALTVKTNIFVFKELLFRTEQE

A further assay has as its target T2, HTRA4, P83105.
T2 sequence (P83105 378-476, limits assumed, looked up): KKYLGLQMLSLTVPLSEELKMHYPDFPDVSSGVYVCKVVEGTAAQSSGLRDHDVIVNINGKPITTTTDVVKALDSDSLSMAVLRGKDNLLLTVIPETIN

Another assay concerns the target T3, APBA2_1, Q99767.
T3 sequence (Q99767 563-664, limits assumed, looked up): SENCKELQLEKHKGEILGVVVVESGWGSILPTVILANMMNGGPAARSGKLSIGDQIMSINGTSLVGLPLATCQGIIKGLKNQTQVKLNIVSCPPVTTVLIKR

For the next assay, the target named is T4, GRIP1_3, Q9Y3R0.
T4 sequence (Q9Y3R0 247-346, limits assumed, looked up): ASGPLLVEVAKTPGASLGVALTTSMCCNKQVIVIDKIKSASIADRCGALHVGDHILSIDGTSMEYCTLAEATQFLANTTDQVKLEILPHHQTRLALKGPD

For another assay, the target named is T5, LIN7C, Q9NUP9.
T5 sequence (Q9NUP9 88-185, limits assumed, looked up): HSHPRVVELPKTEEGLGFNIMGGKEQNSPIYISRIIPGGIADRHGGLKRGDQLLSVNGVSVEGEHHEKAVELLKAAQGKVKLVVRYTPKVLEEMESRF

The next assay has as its target T6, TX1BP3, O14907.
T6 sequence (O14907 10-122, limits assumed, looked up): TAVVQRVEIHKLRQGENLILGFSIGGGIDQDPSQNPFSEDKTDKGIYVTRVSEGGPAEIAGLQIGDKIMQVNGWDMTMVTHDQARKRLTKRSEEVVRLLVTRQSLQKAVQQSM

The next assay concerns the target T7, DFNB31_3, Q9P202.
T7 sequence (Q9P202 811-907, limits assumed, looked up): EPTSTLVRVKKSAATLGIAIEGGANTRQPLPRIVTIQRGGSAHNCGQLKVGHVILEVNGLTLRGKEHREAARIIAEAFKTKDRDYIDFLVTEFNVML

For the next assay, the target named is T8, GRIP1_2, Q9Y3R0.
T8 sequence (Q9Y3R0 145-248, limits assumed, looked up): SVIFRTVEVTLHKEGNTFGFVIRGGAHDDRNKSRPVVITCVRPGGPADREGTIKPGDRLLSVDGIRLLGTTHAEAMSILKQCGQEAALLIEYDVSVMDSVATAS

The target in the next assay is T9, SNTA1, Q13424.
T9 sequence (Q13424 82-180, limits assumed, looked up): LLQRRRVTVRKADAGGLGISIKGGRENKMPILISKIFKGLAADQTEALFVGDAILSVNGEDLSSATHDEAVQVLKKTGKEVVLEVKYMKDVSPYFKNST

The target of the next assay is T10, APBA2_2, Q99767.
T10 sequence (Q99767 654-744, limits assumed, looked up): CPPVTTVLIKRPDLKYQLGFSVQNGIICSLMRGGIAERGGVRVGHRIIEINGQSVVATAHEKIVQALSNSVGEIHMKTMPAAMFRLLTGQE

For the next assay, the target named is T11, APBA1_1, Q02410.
T11 sequence (Q02410 651-752, limits assumed, looked up): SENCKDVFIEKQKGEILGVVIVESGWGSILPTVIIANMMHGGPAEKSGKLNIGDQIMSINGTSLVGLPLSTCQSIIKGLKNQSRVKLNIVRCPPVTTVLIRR

The next assay deals with T12, PDZD7_3, Q9H5P4.
T12 sequence (Q9H5P4 857-944, limits assumed, looked up): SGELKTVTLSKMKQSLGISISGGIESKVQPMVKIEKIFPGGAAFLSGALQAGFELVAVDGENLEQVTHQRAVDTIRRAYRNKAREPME

In another assay the target is T13, TIAM2, Q8IVF5.
T13 sequence (Q8IVF5 885-986, limits assumed, looked up): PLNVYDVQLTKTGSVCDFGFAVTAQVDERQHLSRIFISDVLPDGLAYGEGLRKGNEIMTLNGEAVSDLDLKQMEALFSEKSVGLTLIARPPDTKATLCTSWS

A further assay addresses T14, SYNJ2BP, P57105.
T14 sequence (P57105 8-110, limits assumed, looked up): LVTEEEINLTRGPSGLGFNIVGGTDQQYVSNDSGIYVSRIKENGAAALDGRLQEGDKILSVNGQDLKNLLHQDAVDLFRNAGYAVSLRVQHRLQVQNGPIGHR

Where [1] appears, read: plain residues with an end cap or a label only (N-terminal biotin on a linker: ahx).
The mark [2] stands for this setting: plain residues with an end cap or a label only (N-terminal biotin on a linker: ttds).

MAGI2_5, Q86UL8, sequence (Q86UL8 915-1017): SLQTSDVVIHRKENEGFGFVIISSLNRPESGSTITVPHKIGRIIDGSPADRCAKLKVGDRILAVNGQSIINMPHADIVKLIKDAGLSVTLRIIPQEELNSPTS
Inadl_4, Q8NI35, sequence (Q8NI35 547-651): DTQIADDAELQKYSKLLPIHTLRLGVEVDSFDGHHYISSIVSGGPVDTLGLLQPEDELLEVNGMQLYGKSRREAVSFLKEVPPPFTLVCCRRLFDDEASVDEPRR
Inadl_3, Q8NI35, sequence (Q8NI35 359-469): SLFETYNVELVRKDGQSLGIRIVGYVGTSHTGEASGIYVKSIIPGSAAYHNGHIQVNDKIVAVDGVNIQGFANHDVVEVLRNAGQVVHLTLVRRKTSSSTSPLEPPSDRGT
DLG4_1, P78352, sequence (P78352 62-152): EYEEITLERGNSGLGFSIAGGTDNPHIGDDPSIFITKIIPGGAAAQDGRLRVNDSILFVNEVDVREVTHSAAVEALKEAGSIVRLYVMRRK
Inadl_9, Q8NI35, sequence (Q8NI35 1530-1615): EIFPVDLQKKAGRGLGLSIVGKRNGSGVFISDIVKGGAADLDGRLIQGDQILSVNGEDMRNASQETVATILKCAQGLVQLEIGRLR
MAGI1_2, Q96QZ7, sequence (Q96QZ7 456-580): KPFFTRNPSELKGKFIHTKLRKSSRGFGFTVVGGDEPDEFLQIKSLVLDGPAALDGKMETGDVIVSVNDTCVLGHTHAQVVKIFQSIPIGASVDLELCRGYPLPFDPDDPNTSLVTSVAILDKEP

B1: PDLIM7, Q9NR12;Q9NR12-1 (peptide)
chain: LCKSHAFSHV
As for B1, the pKd entry with RAPGEF6, Q8TEU7 (setting [1]) was “below the threshold”; in the assay with Inadl_3, Q8NI35 (setting [1]) it was “below the threshold”; with DLG4_1, P78352 (setting [1]) it was “below the threshold”; in the assay with HTRA4, P83105 (setting [1]) it was “below the threshold”; with APBA2_1, Q99767 (setting [1]) it was “below the threshold”; with DLG1_1, Q12959 (setting [1]) it was “below the threshold”. Besides, the pKd entry with Inadl_9, Q8NI35 (setting [1]) was “below the threshold”; in the assay with GRIP1_3, Q9Y3R0 (setting [1]) it was “below the threshold”; with LIN7C, Q9NUP9 (setting [1]), “below the threshold”; in the assay with TX1BP3, O14907 (setting [1]) it was 3.95; with DFNB31_3, Q9P202 (setting [1]), “below the threshold”; with GRIP1_2, Q9Y3R0 (setting [1]) it was “below the threshold”. Moreover, the pKd entry in the assay with SNTA1, Q13424 (setting [1]) is recorded as “below the threshold”; with DLG1_3, Q12959 (setting [1]), “below the threshold”; with Inadl_4, Q8NI35 (setting [1]), “below the threshold”; in the assay with APBA2_2, Q99767 (setting [1]), “below the threshold”; with APBA1_1, Q02410 (setting [1]), “below the threshold”; in the assay with PDZD7_3, Q9H5P4 (setting [1]), “below the threshold”.

B2: RAPGEF2, Q9Y4G8 (peptide)
chain: EDEDEQVSAV
With B2, the pKd entry with RAPGEF6, Q8TEU7 (setting [1]) was “below the threshold”; in the assay with Inadl_3, Q8NI35 (setting [1]) it was “below the threshold”; with DLG4_1, P78352 (setting [1]) it was 3.59; with HTRA4, P83105 (setting [1]), “below the threshold”; with TIAM2, Q8IVF5 (setting [1]), “below the threshold”; with APBA2_1, Q99767 (setting [1]), “below the threshold”. The pKd result was “below the threshold” in the assay with DLG1_1, Q12959 (setting [1]); “below the threshold” with Inadl_9, Q8NI35 (setting [1]); “below the threshold” in the assay with GRIP1_3, Q9Y3R0 (setting [1]); “below the threshold” in the assay with LIN7C, Q9NUP9 (setting [1]); “below the threshold” in the assay with TX1BP3, O14907 (setting [1]); “below the threshold” with DFNB31_3, Q9P202 (setting [1]). Also, the pKd was 3.49 with SYNJ2BP, P57105 (setting [1]); 4.46 with MAGI2_5, Q86UL8 (setting [1]); “below the threshold” with GRIP1_2, Q9Y3R0 (setting [1]); 3.61 with SNTA1, Q13424 (setting [1]); “below the threshold” with MAGI1_2, Q96QZ7 (setting [1]); “below the threshold” with DLG1_3, Q12959 (setting [1]). Besides, the pKd entry with Inadl_4, Q8NI35 (setting [1]) was “below the threshold”; with APBA2_2, Q99767 (setting [1]) it was “below the threshold”; in the assay with APBA1_1, Q02410 (setting [1]) it was “below the threshold”; in the assay with PDZD7_3, Q9H5P4 (setting [1]), 3.87.

B3: PTEN, P60484 (peptide)
chain: DEDQHTQITKV
B3: the pKd entry with RAPGEF6, Q8TEU7 (setting [2]) was “below the threshold”; in the assay with Inadl_3, Q8NI35 (setting [2]) it was 3.45; with DLG4_1, P78352 (setting [2]) it was 3.82; with HTRA4, P83105 (setting [2]), 3.62; in the assay with TIAM2, Q8IVF5 (setting [2]) it was “below the threshold”; with APBA2_1, Q99767 (setting [2]), “below the threshold”. Moreover, the pKd with DLG1_1, Q12959 (setting [2]) is 3.64; in the assay with Inadl_9, Q8NI35 (setting [2]) it was “below the threshold”; with GRIP1_3, Q9Y3R0 (setting [2]) it was “below the threshold”; with LIN7C, Q9NUP9 (setting [2]) it was “below the threshold”; with TX1BP3, O14907 (setting [2]), “below the threshold”; with DFNB31_3, Q9P202 (setting [2]) it was 3.71. The pKd with SYNJ2BP, P57105 (setting [2]) is 3.65; in the assay with MAGI2_5, Q86UL8 (setting [2]), 4.15; in the assay with SNTA1, Q13424 (setting [2]), 4.04; in the assay with MAGI1_2, Q96QZ7 (setting [2]), “below the threshold”; with DLG1_3, Q12959 (setting [2]), 3.71; with Inadl_4, Q8NI35 (setting [2]), “below the threshold”. The pKd entry with APBA2_2, Q99767 (setting [2]) was “below the threshold”; in the assay with APBA1_1, Q02410 (setting [2]), “below the threshold”; with PDZD7_3, Q9H5P4 (setting [2]), 5.1.

B4: SHROOM3, Q8TF72 (peptide)
chain: GIFPTLTSPL
Turning to B4, the pKd entry with RAPGEF6, Q8TEU7 (setting [1]) was “below the threshold”; with Inadl_3, Q8NI35 (setting [1]), “below the threshold”; with DLG4_1, P78352 (setting [1]), “below the threshold”; in the assay with HTRA4, P83105 (setting [1]), “below the threshold”; in the assay with TIAM2, Q8IVF5 (setting [1]), “below the threshold”; in the assay with APBA2_1, Q99767 (setting [1]), “below the threshold”. In addition, the pKd entry was “below the threshold” with DLG1_1, Q12959 (setting [1]); “below the threshold” with Inadl_9, Q8NI35 (setting [1]); “below the threshold” with GRIP1_3, Q9Y3R0 (setting [1]); “below the threshold” with LIN7C, Q9NUP9 (setting [1]); 3.65 in the assay with TX1BP3, O14907 (setting [1]); “below the threshold” with DFNB31_3, Q9P202 (setting [1]). Also, the pKd result in the assay with SYNJ2BP, P57105 (setting [1]) is “below the threshold”; with MAGI2_5, Q86UL8 (setting [1]), “below the threshold”; with SNTA1, Q13424 (setting [1]), “below the threshold”; with MAGI1_2, Q96QZ7 (setting [1]) it was “below the threshold”; in the assay with DLG1_3, Q12959 (setting [1]), “below the threshold”; with Inadl_4, Q8NI35 (setting [1]), “below the threshold”. The pKd entry was “below the threshold” with APBA2_2, Q99767 (setting [1]); “below the threshold” in the assay with APBA1_1, Q02410 (setting [1]); 3.51 with PDZD7_3, Q9H5P4 (setting [1]).

B5: KCNA5, P22460 (peptide)
chain: CLDTSRETDL
Consider B5, for which the pKd result with RAPGEF6, Q8TEU7 (setting [2]) is “below the threshold”; with Inadl_3, Q8NI35 (setting [2]) it was “below the threshold”; with DLG4_1, P78352 (setting [2]) it was 3.84; with HTRA4, P83105 (setting [2]), “below the threshold”; with TIAM2, Q8IVF5 (setting [2]), “below the threshold”; with APBA2_1, Q99767 (setting [2]) it was “below the threshold”. In addition, the pKd is 3.79 with DLG1_1, Q12959 (setting [2]); “below the threshold” with Inadl_9, Q8NI35 (setting [2]); 3.66 with GRIP1_3, Q9Y3R0 (setting [2]); 3.74 with LIN7C, Q9NUP9 (setting [2]); 4.28 in the assay with TX1BP3, O14907 (setting [2]); “below the threshold” with DFNB31_3, Q9P202 (setting [2]). Further, the pKd with SYNJ2BP, P57105 (setting [2]) is 4.2; in the assay with MAGI2_5, Q86UL8 (setting [2]), “below the threshold”; with GRIP1_2, Q9Y3R0 (setting [2]), 3.65; in the assay with SNTA1, Q13424 (setting [2]), 5.34; with MAGI1_2, Q96QZ7 (setting [2]), “below the threshold”; with DLG1_3, Q12959 (setting [2]), 3.57. Moreover, the pKd entry is “below the threshold” with Inadl_4, Q8NI35 (setting [2]); “below the threshold” with APBA2_2, Q99767 (setting [2]); “below the threshold” with APBA1_1, Q02410 (setting [2]); 4.05 with PDZD7_3, Q9H5P4 (setting [2]).
